The record followed here is PMC7817217 (Proceedings of the National Academy of Sciences of the …, 2020).

In the assay the target is SARS-CoV-2 spike protein receptor binding domain (RBD) (SARS-CoV-2, UniProt P0DTC2 319-541). As to the kind of experiment: SPR. In general terms: SPR reads the build-up and loss of mass on a sensor chip optically.

Substitutions are numbered along the chain they refer to.

B1: bACE2-Rm (H41-Q42) mutant, mouse Fc tagged (Fc fusion)
chain: STTEDEAKKFLDKFNSKAEDLSHQSSLASWDYNTNISDENVQKMDEAGAKWSAFYEEQSKLAKNYPLEEIQNDTVKRQLQILQQSGSPVLSEDKSKRLNSILNAMSTIYSTGKVCKPNNPQECLLLEPGLDNIMGTSKDYNERLWAWEGWRAEVGKQLRPLYEEYVVLKNEMARGYHYEDYGDYWRRDYETEESSGPGYSRDQLMKDVDRIFTEIKPLYEHLHAYVRAKLMDTYPLHISPTGCLPAHLLGDMWGRFWTNLYPLTVPFGQKPNIDVTDAMLNQGWDANRIFKEAEKFFVSVSLPKMTEGFWNKSMLTEPGDGRKVVCHPTAWDLGKGDFRIKMCTKVTMEDFLTAHHEMGHIQYDMAYASQPYLLRNGANEGFHEAVGEVMSLSVATPKHLKTMGLLSPDFREDDETEINFLLKQALNIVGTLPFTYMLEKWRWMVFKGEIPKEEWMKKWWEMKREIVGVVEPVPHDETYCDPASLFHVANDYSFIRYYTRTIFEFQFHEALCRIAQHNGPLHKCDISNSTDAGKKLHQMLSVGKSQAWTKTLEDIVDSRNMDVGPLLRYFKPLYTWLQEQNRKSYVGWNTDWSPYAD
By Kd is commonly meant the constant that tells how readily two partners part at equilibrium. Higher therefore signals a looser complex. B1 showed a Kd of 2220 nM.

B2: bACE2-Rm (Y41-Q42) mutant, mouse Fc tagged (Fc fusion)
chain: B1 chain with H23Y
Consider B2, for which the dissociation constant (Kd) was 250 nM.
